Drawing on US20150023989A1, “NEW ANTIBODY DRUG CONJUGATES (ADCS) AND THE USE THEREOF” (SEATTLE GENETICS, INC., priority 2011, published 2015), this text covers MFM-223, IC50, 72 hr (growth inhibition) and SNU-16, IC50, 72 hr (growth inhibition) for 2 molecules.

For this assay, the target named is FGFR2 on the cell surface of human tumour cell lines (human), P21802. The experiment in a line: cell-based or functional assay.

B1: Example 17 (immunoconjugate of GAL-FR22-mIgG2a, coupled to lysine side chains) (antibody)
light: DIQMTQSPSSLSASLGGRVTITCKASQDIKNYIAWYQHKPGKSPRLLIHYTSTLQPGVPSRFSGSGSGRDYSFSISNLEPEDIATYYCLQYDDLYMFGGGTKLDIKRTDAAPTVSIFPPSSEQLTSGGASVVCFLNNFYPKDINVKWKIDGSERQNGVLNSWTDQDSKDSTYSMSSTLTLTKDEYERHNSYTCEATHKTSTSPIVKSFNRNEC
heavy: QVQLKQSGPGLVQPSQSLSITCTVSGFSLTSFGVHWVRQSPGKGLEWLGVIWSGGSTDYNADFRSRLSISKDNSKSQIFFKMNSLQPDDTAIYYCANFYYGYDDYVMDYWGQGTSVTVSSAKTTAPSVYPLAPVCGDTTGSSVTLGCLVKGYFPEPVTLTWNSGSLSSGVHTFPAVLQSDLYTLSSSVTVTSSTWPSQSITCNVAHPASSTKVDKKIEPRGPTIKPCPPCKCPAPNLLGGPSVFIFPPKIKDVLMISLSPIVTCVVVDVSEDDPDVQISWFVNNVEVHTAQTQTHREDYNSTLRVVSALPIQHQDWMSGKEFKCKVNNKDLPAPIERTISKPKGSVRAPQVYVLPPPEEEMTKKQVTLTCMVTDFMPEDIYVEWTNNGKTELNYKNTEPVLDSDGSYFMYSKLRVEKKNWVERNSYSCSVVHEGLHNHHTTKSFSRTPGK
modifications: here or on the partner: auristatin linker-toxophore on side chain NH of lysine residues, positions not stated (drug/mAb ratio 8.1 for the antibody)
Turning to B1, the MFM-223, IC50, 72 hr (growth inhibition) turned out to be 0.278 nM and the SNU-16, IC50, 72 hr (growth inhibition) came to 0.0616 nM.

B2: Example 16 (immunoconjugate of GAL-FR21-mIgG1, coupled to lysine side chains) (antibody)
light: NIVMTQSPKSMSMSVGDRVSITCKASQGVSNDVAWYQKKPGQSPKLLIYSASYRYTGVPDRFTGSGSGTDFTFTISNVQAEDLAVYYCQQHSTTPYTFGGGTKLEIKRTDAAPTVSIFPPSSEQLTSGGASVVCFLNNFYPKDINVKWKIDGSERQNGVLNSWTDQDSKDSTYSMSSTLTLTKDEYERHNSYTCEATHKTSTSPIVKSFNRNEC
heavy: QVQLQQPGAEVVKPGASVKMSCKASGYIFTTYNVHWVKQTPGQGLEWIGSIYPDNGDTSYNQNFKGKATLTADKSSSTAYIQLSSLTSEDSAVYYCARGDFAYWGQGTLVTVSSAKTTPPSVYPLAPGSAAQTNSMVTLGCLVKGYFPEPVTVTWNSGSLSSGVHTFPAVLQSDLYTLSSSVTVPSSTWPSETVTCNVAHPASSTKVDKKIVPRDCGCKPCICTVPEVSSVFIFPPKPKDVLTITLTPKVTCVVVDISKDDPEVQFSWFVDDVEVHTAQTQPREEQFNSTFRSVSELPIMHQDWLNGKEFKCRVNSAAFPAPIEKTISKTKGRPKAPQVYTIPPPKEQMAKDKVSLTCMITDFFPEDITVEWQWNGQPAENYKNTQPIMDTDGSYFVYSKLNVQKSNWEAGNTFTCSVLHEGLHNHHTEKSLSHSPGK
modifications: here or on the partner: auristatin linker-toxophore on side chain NH of lysine residues, positions not stated (drug/mAb ratio 8.7 for the antibody)
Consider B2, for which the MFM-223, IC50, 72 hr (growth inhibition) was determined as 0.0788 nM and the SNU-16, IC50, 72 hr (growth inhibition) was less than 0.03 nM.
